The record followed here is publication doi:10.1101/2025.08.28.672897.

This assay has as its target μ opioid receptor (MOR) (human) (UniProt P35372).
Sequence of UniProt P35372 (P35372 whole entry): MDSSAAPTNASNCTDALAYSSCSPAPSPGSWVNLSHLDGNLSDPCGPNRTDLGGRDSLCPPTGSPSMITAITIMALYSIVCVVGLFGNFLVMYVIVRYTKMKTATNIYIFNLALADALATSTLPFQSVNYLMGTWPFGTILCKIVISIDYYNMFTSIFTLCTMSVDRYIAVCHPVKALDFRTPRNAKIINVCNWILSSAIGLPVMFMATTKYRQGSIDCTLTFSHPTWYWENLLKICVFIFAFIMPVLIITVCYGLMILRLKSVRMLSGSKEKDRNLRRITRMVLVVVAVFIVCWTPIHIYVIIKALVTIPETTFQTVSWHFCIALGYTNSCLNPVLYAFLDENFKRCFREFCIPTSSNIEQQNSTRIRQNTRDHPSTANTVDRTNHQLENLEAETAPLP

Consider DAMGO (peptide), for which the TRUPATH BRET2, Ggust activation, 0 mM sodium, pEC50 stood at 10.2 pEC50; the TRUPATH BRET2, Ggust activation, 140 mM sodium, pEC50 was 9.57 pEC50; the TRUPATH BRET2, Gi1 activation, 0 mM sodium, pEC50 was found to be 9.01 pEC50; the TRUPATH BRET2, Gi1 activation, 140 mM sodium, pEC50 was found to be 7.55 pEC50. The TRUPATH BRET2, Gi2 activation, 0 mM sodium, pEC50 was 9.97 pEC50; the TRUPATH BRET2, Gi2 activation, 140 mM sodium, pEC50 was found to be 9.17 pEC50; the TRUPATH BRET2, Gi3 activation, 0 mM sodium, pEC50 amounted to 9.43 pEC50; the TRUPATH BRET2, Gi3 activation, 140 mM sodium, pEC50 is 8.12 pEC50. This substance returned a TRUPATH BRET2, GoA activation, 0 mM sodium, pEC50 of 9.82 pEC50; a TRUPATH BRET2, GoA activation, 140 mM sodium, pEC50 of 9.08 pEC50; a TRUPATH BRET2, GoB activation, 0 mM sodium, pEC50 of 9.77 pEC50; a TRUPATH BRET2, GoB activation, 140 mM sodium, pEC50 of 8.52 pEC50. This substance also registered a TRUPATH BRET2, Gz activation, 0 mM sodium, pEC50 of 9.66 pEC50 and a TRUPATH BRET2, Gz activation, 140 mM sodium, pEC50 of 8.82 pEC50.
